These results are taken from patent US20260232827A1 (Zymeworks, published 2026).

The target in experiment [1] is T1, Construct 5 (chimeric human NaPi2b, swap in NaPi2a in 304-348) (human).
T1 construct: also called CL_#13436
Put plainly: flow cytometry, transfected HEK293-6e cells, antibody 20 nM. In general terms: Flow cytometry measures light scatter and fluorescence of single cells or particles in a stream.

Experiment [2] has as its target T2, Construct 2 (chimeric human NaPi2b, swap in NaPi2c in 280-301) (human).
T2 construct: also called CL_#29915
Described as above.

The target of experiment [3] is T3, Construct 3 (chimeric human NaPi2b, swap in NaPi2c in 304-321) (human).
T3 construct: also called CL_#29916
The experiment is described as above.

In experiment [4] the target is T4, Construct 4 (chimeric human NaPi2b, swap in NaPi2c in 341-358) (human).
T4 construct: also called CL_#13435
The description is as above.

Experiment [5] concerns the target T1, Construct 5 (chimeric human NaPi2b, …). Put plainly: flow cytometry, transfected HEK293-6e cells, antibody 200 nM.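 Also: cells incubated with antibody for 24 h at 4 °C, background taken as average MFI of unstained cells without primary antibody, at least 1,000 events per well.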
The target in experiment [6] is T5, Construct 6 (human NaPi2b del 317-333) (human, UniProt O95436 1-690).
T5 construct: also called CL_#29919
T5 sequence: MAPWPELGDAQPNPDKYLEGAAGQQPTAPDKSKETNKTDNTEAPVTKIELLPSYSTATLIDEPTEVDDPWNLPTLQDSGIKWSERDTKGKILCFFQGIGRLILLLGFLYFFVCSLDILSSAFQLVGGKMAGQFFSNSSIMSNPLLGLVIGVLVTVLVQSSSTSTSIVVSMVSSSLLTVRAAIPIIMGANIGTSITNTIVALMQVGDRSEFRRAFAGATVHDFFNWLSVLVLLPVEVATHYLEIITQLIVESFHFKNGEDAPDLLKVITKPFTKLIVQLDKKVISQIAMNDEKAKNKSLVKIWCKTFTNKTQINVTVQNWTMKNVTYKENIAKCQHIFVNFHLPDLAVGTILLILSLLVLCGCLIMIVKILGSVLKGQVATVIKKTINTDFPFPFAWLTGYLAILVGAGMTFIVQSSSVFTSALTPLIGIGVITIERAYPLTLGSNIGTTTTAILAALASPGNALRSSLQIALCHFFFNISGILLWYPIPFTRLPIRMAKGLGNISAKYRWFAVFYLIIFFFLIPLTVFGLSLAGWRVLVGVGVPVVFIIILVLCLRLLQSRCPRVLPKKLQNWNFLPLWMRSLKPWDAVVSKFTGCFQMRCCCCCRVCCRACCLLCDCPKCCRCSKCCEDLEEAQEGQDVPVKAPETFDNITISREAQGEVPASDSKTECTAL
The experiment is described as above.

The target in experiment [7] is T6, Full length human NaPi2b (sodium-dependent phosphate transporter 2B, SLC34A2) (human, UniProt O95436 1-690).
T6 construct: also called huNaPi2b; CL_#13432
T6 sequence: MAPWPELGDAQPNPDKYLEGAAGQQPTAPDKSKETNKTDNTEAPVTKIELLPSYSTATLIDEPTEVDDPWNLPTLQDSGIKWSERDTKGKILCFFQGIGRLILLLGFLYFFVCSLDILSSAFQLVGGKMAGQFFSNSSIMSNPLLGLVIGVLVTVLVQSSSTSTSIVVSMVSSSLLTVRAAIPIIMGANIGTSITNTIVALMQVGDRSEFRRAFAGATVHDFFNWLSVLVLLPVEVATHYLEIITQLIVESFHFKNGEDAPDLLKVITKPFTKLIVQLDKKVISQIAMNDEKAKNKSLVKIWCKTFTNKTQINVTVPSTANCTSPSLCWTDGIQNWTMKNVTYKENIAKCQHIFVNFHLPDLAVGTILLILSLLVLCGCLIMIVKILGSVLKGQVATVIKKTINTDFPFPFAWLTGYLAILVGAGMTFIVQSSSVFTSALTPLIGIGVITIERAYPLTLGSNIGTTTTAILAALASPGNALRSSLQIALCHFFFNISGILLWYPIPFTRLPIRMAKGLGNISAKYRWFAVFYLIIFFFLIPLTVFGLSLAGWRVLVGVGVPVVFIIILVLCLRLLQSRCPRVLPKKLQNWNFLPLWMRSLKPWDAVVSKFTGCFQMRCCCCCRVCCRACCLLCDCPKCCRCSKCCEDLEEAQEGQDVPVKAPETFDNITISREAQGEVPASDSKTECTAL
Described as above.

Experiment [8] has as its target T7, Construct 1 (chimeric human NaPi2b, swap in NaPi2c in 239-259) (human).
T7 construct: also called CL_#29914
Described as above.

Experiment [9] addresses T2, Construct 2 (chimeric human NaPi2b, …). Described as above.
The target of experiment [10] is T3, Construct 3 (chimeric human NaPi2b, …). Described as above.

B1: lifastuzumab (v18993), reference anti-NaPi2b antibody (antibody, human IgG1, kappa)
heavy 1: GEVQLVESGGGLVQPGGSLRLSCAASGFSFSDFAMSWVRQAPGKGLEWVATIGRVAFHTYYPDSMKGRFTISRDNSKNTLYLQMNSLRAEDTAVYYCARHRGFDVGHFDFWGQGTLVTVSSASTKGPSVFPLAPSSKSTSGGTAALGCLVKDYFPEPVTVSWNSGALTSGVHTFPAVLQSSGLYSLSSVVTVPSSSLGTQTYICNVNHKPSNTKVDKKVEPKSCDKTHTCPPCPAPELLGGPSVFLFPPKPKDTLMISRTPEVTCVVVDVSHEDPEVKFNWYVDGVEVHNAKTKPREEQYNSTYRVVSVLTVLHQDWLNGKEYKCKVSNKALPAPIEKTISKAKGQPREPQVYVYPPSRDELTKNQVSLTCLVKGFYPSDIAVEWESNGQPENNYKTTPPVLDSDGSFALVSKLTVDKSRWQQGNVFSCSVMHEALHNHYTQKSLSLSPG
heavy 2: not shown
light: GDIQMTQSPSSLSASVGDRVTITCRSSETLVHSSGNTYLEWYQQKPGKAPKLLIYRVSNRFSGVPSRFSGSGSGTDFTLTISSLQPEDFATYYCFQGSFNPLTFGQGTKVEIKRTVAAPSVFIFPPSDEQLKSGTASVVCLLNNFYPREAKVQWKVDNALQSGNSQESVTEQDSKDSTYSLSSTLTLSKADYEKHKVYACEVTHQGLSSPVTKSFNRGEC
For B1, the “Background-Subtracted AF647 Mean Fluorescence Intensity” value was determined as 52 MFI in experiment [1]; 1200 MFI in experiment [2]; 920 MFI in experiment [3]; 1050 MFI in [4]; 302 MFI in experiment [5]; 183 MFI in experiment [6]. Further, the “Background-Subtracted AF647 Mean Fluorescence Intensity” value in experiment [7] stood at 893 MFI; in experiment [8], 1510 MFI; in [9] it was 1230 MFI; in [10], 943 MFI.

B2: palivizumab (v21995), anti-RSV antibody, negative control (antibody, human IgG1, kappa, V domains shown)
VH: QVTLRESGPALVKPTQTLTLTCTFSGFSLSTSGMSVGWIRQPPGKALEWLADIWWDDKKDYNPSLKSRLTISKDTSKNQVVLKVTNMDPADTATYYCARSMITNWYFDVWGAGTTVTVSS
VL: DIQMTQSPSTLSASVGDRVTITCKSQLSVGYMHWYQQKPGKAPKLLIYDTSKLASGVPSRFSGSGSGTEFTLTISSLQPDDFATYYCFQGSGYPFTFGGGTKLEIKR
For the molecule B2, the “Background-Subtracted AF647 Mean Fluorescence Intensity” value in experiment [1] is 123 MFI; in experiment [2] it was -64 MFI; in experiment [3], 39 MFI; in experiment [4], 22 MFI; in experiment [5], 40 MFI; in experiment [6], 2 MFI. In addition, the “Background-Subtracted AF647 Mean Fluorescence Intensity” value in [7] is 19 MFI; in experiment [8], 12 MFI; in experiment [9] it was -30 MFI; in experiment [10], -5 MFI.

B3: v38591 (humanized anti-NaPi2b antibody, H1L2, wild-type Fc, heavy chains with C-terminal lysine) (antibody, human IgG1, kappa)
heavy: not shown
light: DVQMTQSPSSLSASVGDRVTITCRASQDVYSYLNWYQQKPGKAVKLLIYYTSRLQSGVPSRFSGSGSGTDYTLTISSLQPEDFATYYCQQYNIFPWTFGQGTKLEIKRTVAAPSVFIFPPSDEQLKSGTASVVCLLNNFYPREAKVQWKVDNALQSGNSQESVTEQDSKDSTYSLSSTLTLSKADYEKHKVYACEVTHQGLSSPVTKSFNRGEC
notes: Full-size human IgG1/kappa antibody; also called v38591 (wild-type Fc)
Turning to B3, the “Background-Subtracted AF647 Mean Fluorescence Intensity” value in experiment [2] was 1340 MFI; in experiment [3], 1120 MFI; in [4], 993 MFI; in experiment [5] it was 204 MFI; in experiment [6] it was 210 MFI; in experiment [7] it was 989 MFI. Besides, the “Background-Subtracted AF647 Mean Fluorescence Intensity” value in experiment [8] came to 2160 MFI; in [9], 1410 MFI; in [10], 810 MFI.

B4: MX35 (v18992), reference anti-NaPi2b antibody (antibody, human IgG1, kappa)
heavy 1: GQVQLVQSGAEVVKPGASVKMSCKASGYTFTGYNIHWVKQAPGQGLEWIGAIYPGNGDTSYKQKFRGRATLTADTSTSTVYMELSSLRSEDSAVYYCARGETARATFAYWGQGTLVTVSSASTKGPSVFPLAPSSKSTSGGTAALGCLVKDYFPEPVTVSWNSGALTSGVHTFPAVLQSSGLYSLSSVVTVPSSSLGTQTYICNVNHKPSNTKVDKKVEPKSCDKTHTCPPCPAPELLGGPSVFLFPPKPKDTLMISRTPEVTCVVVDVSHEDPEVKFNWYVDGVEVHNAKTKPREEQYNSTYRVVSVLTVLHQDWLNGKEYKCKVSNKALPAPIEKTISKAKGQPREPQVYVYPPSRDELTKNQVSLTCLVKGFYPSDIAVEWESNGQPENNYKTTPPVLDSDGSFALVSKLTVDKSRWQQGNVFSCSVMHEALHNHYTQKSLSLSPG
heavy 2: not shown
light: GDIQMTQSPSSLSASVGDRVTITCSASQDIGNFLNWYQQKPGKTVKVLIYYTSSLYSGVPSRFSGSGSGTDYTLTISSLQPEDFATYYCQQYSKLPLTFGQGTKLELKRTVAAPSVFIFPPSDEQLKSGTASVVCLLNNFYPREAKVQWKVDNALQSGNSQESVTEQDSKDSTYSLSSTLTLSKADYEKHKVYACEVTHQGLSSPVTKSFNRGEC
Consider B4, for which the “Background-Subtracted AF647 Mean Fluorescence Intensity” value was 79 MFI in experiment [1]; 1250 MFI in experiment [2]; 930 MFI in [3]; 979 MFI in [4]; 219 MFI in experiment [5]; -2 MFI in experiment [6]. Also, the “Background-Subtracted AF647 Mean Fluorescence Intensity” value in experiment [7] is 979 MFI; in experiment [8] it was 1720 MFI; in experiment [9], 1360 MFI; in experiment [10], 802 MFI.
